Laboratory results from article PMC3613427.

Legend:
[1] = target: formate channel FocA from Vibrio cholerae (Vibrio cholerae); assay: crystal structure
[2] = target: formate channel FocA from Vibrio cholerae (Vibrio cholerae); assay: SEC-MALS

formate channel FocA from Vibrio cholerae (natural protein)
stoichiometry N [1]: 5
stoichiometry N [2]: 5
